The supplement of paper PMC10126150
± gives the standard deviation of the averaged measurements.

Tested on: ATP
Assay: switch fluorescence ratio, 500 uM ATP over buffer (Cy3 cluster intensity, sum of 5 cycles each) (fold (ratio)); higher = stronger signal-on switching upon ATP binding; sequences stand for … in TCGTCGGCAGCGTCAGATGTGTATAAGAGACAGTTTTTTTTTTTTTTTTTTTTTTTTT…TC
Conditions: aptamer strand: ATP DNA aptamer (quencher-CACCTGGGGGAGTATTGCGGAGGAAGG + anchor), 100 nM annealed; ATP concentration: 500 uM
Summary of the method: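 Exposure to 500 uM ATP lasted 15 min at 22 °C before imaging, and a selection-buffer image was taken beforehand, for Cy3-labelled switching-strand clusters on a modified Illumina MiSeq flow-cell annealed to 100 nM quencher-labelled ATP aptamer. Five buffer/ATP cycles were run with NaOH stripping and re-annealing between them. The fluorescence ratio per cluster is summed target-cycle over summed buffer-cycle Cy3 intensity, averaged per switch-domain sequence. Clusters outside 100-1000 RFU were excluded.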

## AGGGGTAGGG
  switch fluorescence ratio: 1.01 ± 0.027

## AGGGGTATCG
  switch fluorescence ratio: 1 ± 0.029

## AGGGGTATCT
  switch fluorescence ratio: 0.9739 ± 0.007

## AGGGGTGCGC
  switch fluorescence ratio: 0.9894 ± 0.0055

## AGGGGTGCGG
  switch fluorescence ratio: 1.04 ± 0.08

## AGGGGTGGAG
  switch fluorescence ratio: 1.02 ± 0.006

## AGGGGTGTTT
  switch fluorescence ratio: 0.999 ± 0.039

## AGGGGTTAGC
  switch fluorescence ratio: 0.974 ± 0.05

## AGGGTAAATT
  switch fluorescence ratio: 1.03 ± 0.053

## AGGGTAAGTC
  switch fluorescence ratio: 0.972 ± 0.043

## AGGGTACAGT
  switch fluorescence ratio: 1.04 ± 0.055

## AGGGTAGGGG
  switch fluorescence ratio: 0.994 ± 0.03

## AGGGTAGGTG
  switch fluorescence ratio: 1.09 ± 0.012

## AGGGTATGTT
  switch fluorescence ratio: 0.9682 ± 0.004

## AGGGTATTCA
  switch fluorescence ratio: 1.01 ± 0.02

## AGGGTCAGGG
  switch fluorescence ratio: 1.01 ± 0.04

## AGGGTCGGAA
  switch fluorescence ratio: 1.02 ± 0.018

## AGGGTCTTGC
  switch fluorescence ratio: 0.998 ± 0.014

## AGGGTGCCGT
  switch fluorescence ratio: 0.988 ± 0.08

## AGGGTGCTCC
  switch fluorescence ratio: 1.23 ± 0.33

## AGGGTGCTCG
  switch fluorescence ratio: 1.02 ± 0.047

## AGGGTGGGGG
  switch fluorescence ratio: 1.03 ± 0.036

## AGGGTGGGTA
  switch fluorescence ratio: 0.9768 ± 0.0053

## AGGGTGGTGT
  switch fluorescence ratio: 0.976 ± 0.039

## AGGGTGGTTT
  switch fluorescence ratio: 0.997 ± 0.02

## AGGGTGTGCC
  switch fluorescence ratio: 1.01 ± 0.018

## AGGGTTAACA
  switch fluorescence ratio: 1.01 ± 0.016

## AGGGTTAGCA
  switch fluorescence ratio: 1.02 ± 0.021

## AGGGTTATCG
  switch fluorescence ratio: 1.02 ± 0.018

## AGGGTTCTGG
  switch fluorescence ratio: 0.971 ± 0.028

## AGGGTTGCAT
  switch fluorescence ratio: 0.9863 ± 0.0025

## AGGGTTGGCA
  switch fluorescence ratio: 0.998 ± 0.029

## AGGGTTGGGT
  switch fluorescence ratio: 1.01 ± 0.03

## AGGGTTTGGG
  switch fluorescence ratio: 1.01 ± 0.038

## AGGTAAACGT
  switch fluorescence ratio: 1.05 ± 0.083

## AGGTAAATTA
  switch fluorescence ratio: 0.9982 ± 0.0076

## AGGTAACTGT
  switch fluorescence ratio: 1.01 ± 0.051

## AGGTAAGCTA
  switch fluorescence ratio: 1.025 ± 0.005

## AGGTAAGGGT
  switch fluorescence ratio: 0.974 ± 0.035

## AGGTAATAGC
  switch fluorescence ratio: 1.05 ± 0.0078

## AGGTACCGTT
  switch fluorescence ratio: 1.033 ± 0.0017

## AGGTACGTGG
  switch fluorescence ratio: 0.996 ± 0.059

## AGGTAGAGAG
  switch fluorescence ratio: 0.992 ± 0.038

## AGGTAGCACA
  switch fluorescence ratio: 1.056 ± 0.0036

## AGGTAGGCGT
  switch fluorescence ratio: 0.97539 ± 0.00061

## AGGTAGTTTA
  switch fluorescence ratio: 1.02 ± 0.045

## AGGTATGCGT
  switch fluorescence ratio: 0.985 ± 0.041

## AGGTATTGGA
  switch fluorescence ratio: 0.985 ± 0.015

## AGGTATTTG
  switch fluorescence ratio: 0.986 ± 0.013

## AGGTCATGTA
  switch fluorescence ratio: 1.01 ± 0.026

## AGGTCCGACG
  switch fluorescence ratio: 0.967 ± 0.041

## AGGTCGAATT
  switch fluorescence ratio: 1 ± 0.051

## AGGTCGGGAG
  switch fluorescence ratio: 0.9895 ± 0.0072

## AGGTCGTCGT
  switch fluorescence ratio: 0.955 ± 0.017

## AGGTCGTGGG
  switch fluorescence ratio: 0.996 ± 0.016

## AGGTCTATGC
  switch fluorescence ratio: 0.975 ± 0.016

## AGGTCTATTG
  switch fluorescence ratio: 1.06 ± 0.09

## AGGTCTGCGG
  switch fluorescence ratio: 0.967 ± 0.025

## AGGTCTTTCG
  switch fluorescence ratio: 1.002 ± 0.003

## AGGTGACGGT
  switch fluorescence ratio: 0.9809 ± 0.0085

## AGGTGAGGCA
  switch fluorescence ratio: 1.05 ± 0.097

## AGGTGCCGTG
  switch fluorescence ratio: 1.02 ± 0.083

## AGGTGCTGGG
  switch fluorescence ratio: 1.03 ± 0.013

## AGGTGGGGAT
  switch fluorescence ratio: 0.994 ± 0.021

## AGGTGGTGAC
  switch fluorescence ratio: 0.979 ± 0.018

## AGGTGGTGCT
  switch fluorescence ratio: 0.991 ± 0.056

## AGGTGGTGTG
  switch fluorescence ratio: 0.984 ± 0.015

## AGGTGTAACA
  switch fluorescence ratio: 1.15 ± 0.2

## AGGTGTGAGC
  switch fluorescence ratio: 1.03 ± 0.012

## AGGTTAGGGT
  switch fluorescence ratio: 0.969 ± 0.015

## AGGTTATATT
  switch fluorescence ratio: 1.01 ± 0.024

## AGGTTCAAAG
  switch fluorescence ratio: 0.959 ± 0.037

## AGGTTCATCT
  switch fluorescence ratio: 1.011 ± 0.0057

## AGGTTGAAGG
  switch fluorescence ratio: 0.997 ± 0.016

## AGGTTGAGAT
  switch fluorescence ratio: 1.04 ± 0.041

## AGGTTGAGGA
  switch fluorescence ratio: 0.964 ± 0.033

## AGGTTGCCGG
  switch fluorescence ratio: 1.04 ± 0.046

## AGGTTGGGGC
  switch fluorescence ratio: 1.01 ± 0.052

## AGGTTGTAGC
  switch fluorescence ratio: 0.998 ± 0.02

## AGGTTGTCGT
  switch fluorescence ratio: 0.997 ± 0.035

## AGGTTGTGAG
  switch fluorescence ratio: 0.98 ± 0.034

## AGGTTGTTCT
  switch fluorescence ratio: 0.967 ± 0.035

## AGGTTTATTT
  switch fluorescence ratio: 1.02 ± 0.018

## AGGTTTCCGT
  switch fluorescence ratio: 1.02 ± 0.032

## AGGTTTGACA
  switch fluorescence ratio: 1.027 ± 0.0067

## AGGTTTGCGT
  switch fluorescence ratio: 1.01 ± 0.021

## AGGTTTTCAG
  switch fluorescence ratio: 0.983 ± 0.045

## AGGTTTTCGT
  switch fluorescence ratio: 1.028 ± 0.0039

## AGGTTTTGGG
  switch fluorescence ratio: 0.979 ± 0.022

## AGGTTTTGTG
  switch fluorescence ratio: 1.02 ± 0.044

## AGGTTTTTGA
  switch fluorescence ratio: 0.991 ± 0.04

## AGTAAAGGGT
  switch fluorescence ratio: 0.999 ± 0.012

## AGTAAATTAT
  switch fluorescence ratio: 1.03 ± 0.027

## AGTAACCGGC
  switch fluorescence ratio: 0.967 ± 0.12

## AGTAACCTTG
  switch fluorescence ratio: 1.02 ± 0.022

## AGTAACGCTT
  switch fluorescence ratio: 1.008 ± 0.01

## AGTAACGGTA
  switch fluorescence ratio: 1.04 ± 0.012

## AGTAACGGTG
  switch fluorescence ratio: 1.034 ± 0.0019

## AGTAAGATAA
  switch fluorescence ratio: 0.986 ± 0.058

## AGTAAGCGAC
  switch fluorescence ratio: 1.063 ± 0.0014
